Patent US20240360208A1

How the values were obtained:
[1] = target: monomeric Fcγ receptor FcγRIIIa (human) (UniProt P08637); experiment: SPR T200, Protein L capture, FcγR at 5 µg/ml, 25 C, pH 7.4
[2] = target: monomeric Fcγ receptor FcγRIIa (human) (UniProt P12318); experiment: as above
[3] = target: monomeric Fcγ receptor FcγRIIb (human) (UniProt P31994); experiment: as above
[4] = target: biotinylated human single chain FcRn (human) (UniProt P55899); experiment: SPR Biacore 8K, sc huFcRn on SA chip, 50 nM antibody, 25 C, pH 5
[5] = target: biotinylated human single chain FcRn (human) (UniProt P55899); experiment: SPR Biacore 8K, sc huFcRn on SA chip, 50 nM antibody, 25 C, pH 6
[6] = target: biotinylated human single chain FcRn (human) (UniProt P55899); experiment: SPR Biacore 8K, sc huFcRn on SA chip, 50 nM antibody, 25 C, pH 7.4
[7] = target: human CCL2 (MCP1) - wild type (wt) (human) (UniProt P13500); experiment: cell-based or functional assay

monomeric Fcγ receptor FcγRIIa (human), sequence (P12318 34-217 limits assumed): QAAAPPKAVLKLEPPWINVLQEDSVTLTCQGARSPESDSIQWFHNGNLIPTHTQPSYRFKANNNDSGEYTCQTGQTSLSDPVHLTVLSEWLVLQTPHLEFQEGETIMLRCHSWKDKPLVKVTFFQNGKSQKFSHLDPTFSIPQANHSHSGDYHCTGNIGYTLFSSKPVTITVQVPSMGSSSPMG
monomeric Fcγ receptor FcγRIIb (human), sequence (P31994 43-217 limits assumed): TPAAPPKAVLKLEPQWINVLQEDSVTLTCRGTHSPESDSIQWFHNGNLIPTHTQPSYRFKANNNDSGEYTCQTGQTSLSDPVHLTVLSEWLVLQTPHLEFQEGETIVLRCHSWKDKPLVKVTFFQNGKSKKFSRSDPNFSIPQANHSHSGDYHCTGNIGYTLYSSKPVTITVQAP
monomeric Fcγ receptor FcγRIIIa (human), sequence (P08637 17-208 limits assumed): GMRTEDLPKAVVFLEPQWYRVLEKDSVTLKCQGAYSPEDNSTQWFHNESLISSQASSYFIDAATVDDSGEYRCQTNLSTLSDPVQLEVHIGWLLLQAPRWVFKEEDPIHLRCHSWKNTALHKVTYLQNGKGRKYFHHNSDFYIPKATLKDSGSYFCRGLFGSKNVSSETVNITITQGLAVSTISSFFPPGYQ

binding amounts of hFcγRs (RU) per 1 RU Ab [1] [RU per RU] | binding amounts of hFcγRs (RU) per 1 RU Ab [2] [RU per RU] | binding amounts of hFcγRs (RU) per 1 RU Ab [3] [RU per RU] | Binding amount of Ab (RU) per 1RU of FcRn-surface [4] [RU per RU] | Binding amount of Ab (RU) per 1RU of FcRn-surface [5] [RU per RU] | Binding amount of Ab (RU) per 1RU of FcRn-surface [6] [RU per RU] | THP1 chemotaxis [fold change compared to IgG control] [7] [fold] | Substance
0.001 | 0.003 | 0 | 0.9 | 0.35 | 0 |  | CNTO888 (antibody)
 |  |  |  |  |  | 3.7 | human CCL2/JE/MCP-1 Antibody (R&D Systems Cat #MAB279)
